Experiments:
[1] = molecular target: human nicotinic acetylcholine receptor α7 subunit with a three amino acid (IIC) deletion in TM4 (human) (UniProt P36544); assay: radioligand binding
[2] = molecular target: T1, human nicotinic acetylcholine receptor α7 subunit, wild type (human, UniProt P36544 23-502); assay: radioligand binding; conditions: one partner purified
T1 construct: also called Hα7; human α7 nAChR

In the case of “[3H]-α-bungarotoxin (from UniProt P60615 22-95) (natural protein)”, the EC50 [1] is reported as 0.9 nM.

B1: [3H]-α-bungarotoxin (natural protein)
chain: IVCHTTATSPISAVTCPPGENLCYRKMWCDAFCSSRGKVVELGCAATCPSKKPYEEVTCCSTDKCNPHPKQRPG
Molecule B1 has an EC50 [2] of 20 ± 5.8 nM.
